In patent publication US12702697B2, “Compositions and methods for treatment of headache disorders and neuropathic pain” (Washington University, priority 2019, dated 2026):

Key:
[1] = test system: mTBI-induced facial mechanical hypersensitivity in mice; experiment: Mouse model of mild traumatic brain injury-induced post-traumatic headache (facial mechanical thresholds, low-dose NTG priming); assay type: in vivo
Description: Mouse model of mild traumatic brain injury-induced post-traumatic headache. Adult Swiss Webster mice (30-35 g) were subjected to mTBI using a modified closed head weight-drop method. 43, 58 Briefly, mice were anesthetized with 3% isoflurane for 90 seconds and were placed chest down on a foam sponge (4-cm thickness and 0.062-g/cm3 density) directly underneath a hollow cylindrical tube (1.5-cm inner diameter) placed approximately 1 cm vertically over the mouse's head. To induce mTBI, a 30-g weight (1.3-cm diameter and 3.4-cm height) was dropped through the tube from a height of 80 cm, striking the center point between the ears once. All mice regained righting reflex within 2 minutes. […] Sham mice were anesthetized with 3% isoflurane for 90 seconds but not subjected to the weight drop. Facial mechanical thresholds were measured before and at various time points after mTBI. Daily ldIL2 or saline were administered 1 or 7 days after the sham or mTBI procedure. To reveal mTBI-induced hyperalgesia priming, mice received daily i.p. injections of NTG (0.1 mg/kg, i.p.) for 4 to 6 days, starting at 35 days after mTBI. Facial mechanical thresholds were measured between day 35 and 43 days after mTBI. Note that on the days that the mouse behaviors were tested, NTG and/or IL2 were always injected after completing the behavioral tests.
(§1) Withdrawal responses to facial mechanical stimuli. The hair on mouse forehead (above and between 2 eyes) was shaved the day before testing. On the test day, the experimenter gently held the mouse on the palm with minimal restraint and applied the calibrated von Frey filament perpendicularly to the shaved skin, causing the filament to bend for 5 seconds. A positive response was determined by the following criteria as previously described: mouse vigorously stroked its face with the forepaw, head withdrawal from the stimulus, or head shaking (Elliott M B et al., Headache 2012; 52:966-84). The up-down paradigm was used to determine the 50% withdrawal threshold.

[2] = test system: sumatriptan-induced cutaneous hypersensitivity in mice; experiment: Mouse model of medication overuse headache (repeated sumatriptan); assay type: in vivo
Experimental: Mouse model of medication overuse headache. After measuring baseline nociceptive responses, mice received daily i.p. injections of sumatriptan succinate (0.6 mg/kg; Fresenius Kabi, Lake Zurich, IL44). Daily ld-IL2 or saline were administered after mice received 2 sumatriptan injections. Facial and hindpaw mechanical thresholds were measured every 2 days. Note that on the days that the mouse behaviors were tested, sumatriptan and/or IL2 were always injected after completing the behavioral tests.
Responses to mechanical stimuli on the hindpaw. Mice were habituated in individual clear plexiglass boxes (11×11×15 cm) for 1 to 2 hours. A series of calibrated von Frey filaments was used to apply mechanical stimuli to the plantar surface of the hindpaws. The up-down paradigm was used to determine the 50% withdrawal threshold. The thresholds for both hindpaws were averaged to yield a single value for each mouse.
as §1

[3] = test system: Treg cells and CD3+ T cells in dura, TG and DRG; experiment: Immunohistochemistry of CD3+ T cells and EGFP+ Treg cells in dura, TG, DRG and cervical/medullary dorsal horn; assay type: in vivo, mouse
Experimental: Tissue preparation, immunohistochemistry, and image analysis. Mice were euthanized with i.p. injection of barbiturate (200 mg/kg) and were transcardially perfused with warm 0.1 M phosphate buffered saline (pH 7.2) followed by cold 4% formaldehyde in 0.1 M phosphate buffer (pH 7.2) for fixation. Trigeminal ganglia, lumbar L4 DRG, and the tissues containing the cervical/medullary dorsal horn (from obex to C3 cervical spinal cord) were collected and sectioned at […] in the transverse plane, collected on Superfrost Plus glass slides in sequence and stored at […]
The dura was carefully dissected from the skull using forceps and stained as whole mount. T cells were identified by the rat anti-CD3 antibody (clone 17A2, 1:200; eBioscience, San Diego, CA), and Treg cells were identified with the chicken anti-EGFP (1:1000; AVES Lab, Tigard, OR) antibody in tissues from DEREG mice. […] To quantify CD31 T cells and Treg cells on the dura, we took random, nonoverlapping images (10 per mouse) in areas adjacent to the middle meningeal artery (MMA). To quantify T cells and Treg cells in TG, DRG, and cervical/medullary dorsal horn, all cells on individual sections were counted, and the number was multiplied by 4 to obtain the total number of cells per ganglion in each mouse. […] Representative images were adjusted for contrast and brightness using the same parameter within individual experiments. No other manipulations were made to the images. Image analysis was performed with experimenters blinded to the experimental groups.

[4] = test system: IFNγ secretion by splenocytes; experiment: IFNγ ELISA and ELISPOT of CD3/CD28-stimulated splenocytes; assay type: cell-based, mouse
Experimental: To quantify interferon g (IFNγ) secretion, splenocytes were plated in 24-well plates (5 3 106 per well) and stimulated with antiCD3 and anti-CD28 antibodies ([…]) in 1 mL complete RPMI1640 media overnight. IFNγ in the supernatants were quantified by ELISA (430901; Biolegend).
ELISPOT assay was performed to determine the number of INFg-secreting cells. Splenocytes were plated at 5×10^4 cells per well and incubated overnight with RPMI1640 media containing anti-CD3 and anti-CD28 antibodies ([…]) for stimulation. IFNg was detected using a colorimetric reagent kit (R&D SEL485 and SEL002). Following development, images were captured and analyzed on the ImmunoSpot7.0 plate reader (Cellular Technologies, Kennesaw, GA).

[5] = daily ld-IL2 starting 1 day after mTBI for 9 days, female Swiss Webster
[6] = 15 days of ld-IL2, male DEREG mice

B1: ld-IL2: Recombinant mouse IL2 (carrier-free; Biolegend), given as daily low-dose i.p. injection (protein, UniProt P04351 21-169, looked up)
Interleukin-2: APTSSSTSSSTAEAQQQQQQQQQQQQHLEQLLMDLQELLSRMENYRNLKLPRMLTFKFYLPKQATELKDLQCLEDELGPLRHVLDLTQSKSFQLEDAENFISNIRVTVVKLKGSDNTFECQFDDESATVVDFLRRWIAFCQSIISTSPQ
persistent facial mechanical hypersensitivity to repeated low-dose NTG after mTBI ([1]; 3 weeks after cessation of ld-IL2, male Swiss Webster): failed to establish
duration of protection from mTBI-induced hyperalgesia priming ([1]; 9 days of ld-IL2 treatment, male and female mice): at least 30 days
facial mechanical threshold, % of the baseline value ([1]; after 3 days of ld-IL2 (day 10), started post-mTBI day 7 (about 26%), male Swiss Webster): 87%
facial mechanical sensitivity of sham mice ([1]; daily ld-IL2, male Swiss Webster): did not change
hyperalgesia priming revealed by repeated low-dose NTG [1, 5]: completely prevented
mTBI-induced acute facial mechanical hypersensitivity [1, 5]: completely prevented
mTBI-induced facial skin hypersensitivity at the end of ld-IL2 treatment ([1]; day 15, ld-IL2 day 7 onward for 9 days, male Swiss Webster): fully reversed
sumatriptan induced cutaneous hypersensitivity ([2]; after 4 to 6 ld-IL2 injections (day 7-9)): significantly attenuated
sumatriptan induced cutaneous hypersensitivity ([2]; after 8 days of IL2 treatment (day 11)): completely reversed
cutaneous hypersensitivity in response to subsequent sumatriptan injections ([2]; continuous ld-IL2 (day 13)): neither male nor female mice developed cutaneous hypersensitivity
frequency of Treg cells among CD3+ cells in the dura ([3]; 15 days of ld-IL2 (5% without)): 20%
increase of the number of EGFP+ Treg cells in the TG ([3]; 15 days of ld-IL2, female DEREG mice): 9 fold
increase in the density of EGFP+ Treg cells in the dura surrounding the MMA [3, 6]: 4 fold
increase in the number of EGFP+ Treg cells in DRG [3, 6]: 4 fold
amount of CD3/CD28 stimulation-induced IFNγ secretion ([4]; ELISA, cells from IL-2-treated mice): significantly reduced
number of splenocytes secreting IFNγ ([4]; ELISPOT, 15 days of ld-IL2): not altered
